Data taken from US7923535B2, “Tryptophan as a functional replacement for ADP-ribose-arginine in recombinant proteins” (The United States of America as represented by the …, priority 2002, dated 2011).
Residue numbers refer to the chain shown, from its start. In names and notes the source's numbering stands.

B1: ART2a: rat ADP-ribosyltransferase ART2a (RT6.1), SEQ ID NO:11, wild type (protein, listed as Rattus norvegicus)
chain: MPSNICKFFLTWWLIQQVTGLTGPLMLDTAPNAFDDQYEGCVNKMEEKAPLLLKEDFNKSEKLKVAWEEAKKRWNNIKPSMSYPKGFNDFHGTALVAYTGSIGVDFNRAVREFKENPGQFHYKAFHYYLTRALQLLSNGDCHSVYRGTKTRFHYTGAGSVRFGQFTSSSLSKTVAQSPEFFSDDGTLFIIKTCLGVYIKEFSFYPDQEEVLIPGYEVYQKVRTQGYNEIFLDSPKRKKSNYNCLYSSAGTRESCVSLFLVVLTSLLVQLLCLAEP
B2: ART2b(R81K): rat ART2b with arginine-to-lysine substitution at position 81 (protein)
chain: LTGPLMLDTAPNAFDDQYEGCVNKMEEKAPLLLQEDFNMNAKLKVAWEEAKKRWNNIKPSKSYPKGFNDFHGTALVAYTGSIAVDFNRAVREFKENPGQFHYKAFHYYLTRALQLLSNGDCHSVYRGTKTRFHYTGAGSVRFGQFTSSSLSKKVAQSQEFFSDHGTLFIIKTCLGVYIKEFSFRPDQEEVLIPGYEVYQKVRTQGYNEIFLDSPKRKKSNYNCLYS
B3: ART2a(M81R,Y204R): rat ART2a with M81R and Y204R substitutions (protein, UniProt P17982 21-246, looked up, variant M81R Y204R)
T-cell …: B2 chain with Q34K, M39K, N40S, A41E, K61R, A83G, K153T, Q158P, H164D
B4: ART2a(59MNA61,Y204R): rat ART2a with K59M, S60N, E61A and Y204R substitutions, non-glycosylated (protein, UniProt P17982 21-246, looked up, variant K59M S60N E61A Y204R)
T-cell …: B2 chain with Q34K, K61M, A83G, K153T, Q158P, H164D
B5: ART2a(Y204R): rat ART2a with tyrosine-to-arginine substitution at position 204 (protein)
chain: B2 chain with Q34K, M39K, N40S, A41E, K61M, A83G, K153T, Q158P, H164D
B6: ART2a(M81R): rat ART2a with methionine-to-arginine substitution at position 81 (protein)
chain: B2 chain with Q34K, M39K, N40S, A41E, K61R, A83G, K153T, Q158P, H164D, R184Y

Assay: NAD glycohydrolase (NADase) assay
Assay type: biochemical, rat
Conditions: PI-PLC released recombinant protein from NMU cells; 0.1 mM [carbonyl-^14C]NAD, 1 hour at 30° C.
Method: NADase activity was measured in DPBS with 0.1 mM [carbonyl-^14C]NAD (8×10^4 cpm) for 1 hour at 30° C., (total volume=150,u). Samples (50,u) were applied to AG1-X2 (BIO-RAD, Hercules, Calif.) columns (0.4×4 cm), equilibrated and eluted with water for liquid scintillation counting as described (Moss et al., Proc Natl Acad Sci U S A 73(12):4424-7, 1976). Transferase activity was assayed similarly with or without 20 mM agmatine as ADP-ribose acceptor and with [adenine-^14C]NAD substituted for [carbonyl-^14C]NAD.

| Molecule | NADase activity |
| --- | --- |
| B1 | have NADase activity |

Assay: Auto-ADP-ribosylation of PI-PLC released recombinant ART2 proteins with [^32P]NAD, SDS-PAGE
Assay type: biochemical, rat
Conditions: 10 μM [^32P]NAD, followed by 5 mM unlabeled NAD
Method: To investigate the structural basis for these differences in catalytic function, site-specific mutagenesis was employed with synthesis of recombinant ART2b and ART2a proteins in rat adenocarcinoma cells (NMU) under a dexamethasone-sensitive promoter. After induction and expression of the GPI-anchored proteins, cells were incubated with PI-PLC to cleave the GPI anchor and then [^32P]-NAD was added to the medium to promote auto-ADP-ribosylation of the released protein (FIG. 2).
To assess the ability of ART2 proteins, ART2a and ART2b, to be auto-ADP-ribosylated at multiple sites, proteins were incubated first with 10 μM [^32P]NAD, followed by addition of 5 mM unlabeled NAD and further incubation (FIG. 4). […] It is unlikely that auto-modification was due to non-enzymatic addition of [^32P]ADP-ribose since reactions were carried out in the presence of 1 mM ADP-ribose, or due to NAD binding, since the radiolabel was not displaced by incubation with 5 mM NAD.

| Molecule | auto-ADP-ribosylation at multiple sites (decrease in mobility on SDS-PAGE) |
| --- | --- |
| B2 | exhibited auto-ADP-ribosylation following incubation with 5 mM NAD |
| B3 | exhibited auto-ADP-ribosylation following incubation with 5 mM NAD |
| B4 | exhibited auto-ADP-ribosylation following incubation with 5 mM NAD |
| B5 | exhibited auto-ADP-ribosylation following incubation with 5 mM NAD |

Same assay, conditions: [^32P]NAD added to PI-PLC released protein; SDS-PAGE

| Molecule | auto-ADP-ribosylation |
| --- | --- |
| B1 | not significantly auto-modified |
| B2 | no effect on auto-ADP-ribosylation |
| B3 | auto-ADP-ribosylation of both glycosylated 33 kDa and nonglycosylated 29 kDa forms was observed |
| B6 | had no effect |
| B5 | auto-ADP-ribosylation of both glycosylated 33 kDa and nonglycosylated 29 kDa forms was observed |
